# Assay results taken from US20100143376A1 (RIBOVAX BIOTECHNOLOGIES S A, published 2010).
# Target: T1, Bovine Serum Albumin (bovine, UniProt P02769 25-607)
# T1 construct: also called BSA
# Assay: ELISA, antigen coated on plate, phage-displayed Fab
# T1 sequence (P02769 25-607 limits assumed): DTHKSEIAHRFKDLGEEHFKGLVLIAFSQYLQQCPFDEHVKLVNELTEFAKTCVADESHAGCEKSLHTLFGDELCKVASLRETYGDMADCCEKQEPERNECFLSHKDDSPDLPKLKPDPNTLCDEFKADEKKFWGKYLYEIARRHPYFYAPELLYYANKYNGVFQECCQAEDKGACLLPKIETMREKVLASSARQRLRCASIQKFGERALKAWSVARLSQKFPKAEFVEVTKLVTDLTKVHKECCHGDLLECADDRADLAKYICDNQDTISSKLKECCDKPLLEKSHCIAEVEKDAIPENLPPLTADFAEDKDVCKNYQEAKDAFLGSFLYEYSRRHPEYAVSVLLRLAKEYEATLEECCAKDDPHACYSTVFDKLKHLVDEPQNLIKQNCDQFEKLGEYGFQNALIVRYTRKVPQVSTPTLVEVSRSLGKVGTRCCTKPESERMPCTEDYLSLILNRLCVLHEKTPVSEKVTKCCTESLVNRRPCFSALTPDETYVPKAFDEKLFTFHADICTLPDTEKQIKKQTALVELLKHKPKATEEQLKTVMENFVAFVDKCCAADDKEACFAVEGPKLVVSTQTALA
row,Binder,binding result
1,"human Fab DDF-RuV1 (Fab, V domains shown) VH: LEQSGAEVKKPGENLKISCEASGYNFVNHWIGWVRQMPGRGLEWMGRIYPGDSETRFSPSFQGQVTISVDKTLSTASLQWNSLKTSDSATYYCVTLGRWSSWQGGALSWGQGTRVIVSS VL: ELTQSPDSLAVSLGERATINCKSSQSILSTSKNKNYLAWYQQKPGQPPKLLIYWASTREDGVPDRFSGSGAGTDFSLTISSLQAEDVAVYYCQQRRSWPPTFGQGTKLEIKR",no binding
2,"human Fab DDF-RuV2 (Fab, V domains shown) VH: LESGGGVVQPGRSLRLSCAASGFTFSTYGMHWVRQAPGKGLEWVAVVSYDGTKEYYSDSVKGRFTISRDNSKKMVYLQMNSLRAEDTAVYYCAKEPPRRGFYWYFDYWGQGTLVTVSS VL: ELTQSPSSLSASVGDRVTITCRASQDISNYLAWFQQRPGKVPNLLIYAASTLQSGVPSRFSGSGSGTEFTLTISSLQPEDGASYYCQKYDGAPWTFGQGTKVEIKR",no binding
